Data published in publication PMC4706430.

Biological target: Elastase (human neutrophil elastase) (human) (UniProt P08246)
Sequence (P08246 30-267): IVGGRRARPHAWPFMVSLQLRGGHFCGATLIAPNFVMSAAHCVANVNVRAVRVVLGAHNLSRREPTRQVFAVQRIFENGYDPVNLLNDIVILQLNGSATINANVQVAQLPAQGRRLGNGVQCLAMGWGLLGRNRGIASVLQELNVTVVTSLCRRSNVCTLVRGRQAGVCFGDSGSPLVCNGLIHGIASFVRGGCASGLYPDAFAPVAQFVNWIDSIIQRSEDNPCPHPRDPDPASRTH

Boophilin (natural protein) was tested, and the cleavage of TFPI (1 μg) by elastase (0.8 μg/mL) with Boophilin 0-3 μM, SDS-PAGE (Fig 4D) was 20%.
